This passage reports Trimeric HA Binding RLU and Trimeric HA Binding: RLU results from patent US20120207760A1.

Common to all, as to details: remark: other sources report otherwise
Assay [1] addresses T1, recombinant homotrimeric HA, A/Wisconsin/67/05 H3N2 (Influenza A virus A/Wisconsin/67/05 (H3N2)). The assay is described as follows: trimeric HA microarray, transfection set 4.
The target in assay [2] is recombinant homotrimeric HA, A/Netherlands/219/03 H7N7 (Influenza A virus A/Netherlands/219/03 (H7N7)). Put plainly: trimeric HA microarray, transfection set 3.
In assay [3] the target is T1, recombinant homotrimeric HA, …. The assay is described as follows: trimeric HA microarray, transfection set 3.
Assay [4] concerns the target recombinant homotrimeric HA, A/Anhui/1/05 H5N1 (Influenza A virus A/Anhui/1/05 (H5N1)). The assay is described as follows: trimeric HA microarray, transfection set 3.
The target in assay [5] is recombinant homotrimeric HA, A/duck/Yangzhou/02/05 H8N4 (Influenza A virus A/duck/Yangzhou/02/2005 (H8N4)). The assay is described as follows: trimeric HA microarray, transfection set 3.
Assay [6] concerns the target T1, recombinant homotrimeric HA, …. Put plainly: trimeric HA microarray, transfection set 2.
Assay [7] deals with recombinant soluble homotrimeric HA of A/Hong Kong/2108/03 (H9N2) (Influenza A virus A/Hong Kong/2108/03 (H9N2)). The assay is described as follows: microarray, control antibody, trimeric HA.
For assay [8], the target named is T1, recombinant homotrimeric HA, …. Put plainly: trimeric HA microarray, transfection set 5.
The target of assay [9] is T2, recombinant homotrimeric HA, A/northern shoveler/California/HKWF115/07 (Influenza A virus A/northern shoveler/California/HKWF115/2007 (H6N1)). Put plainly: trimeric HA microarray, transfection set 3.
Assay [10] has as its target recombinant homotrimeric HA, A/Hong Kong/1073/99 H9N2 (Influenza A virus A/Hong Kong/1073/99 (H9N2)). Put plainly: trimeric HA microarray, transfection set 3.
Assay [11] concerns the target T2, recombinant homotrimeric HA, A/northern …. The assay is described as follows: trimeric HA microarray, transfection set 2.

B1: TCN-504 (3251_K17) (antibody, V domains shown)
VH: QVQLQESGPGLVKPSETLSLTCAVSGVSISNIDFYWGWIRQPPGKGLEWIGNIYYTGITFYNPSLSSRVAISIDTSKNQFSLTLTSVTAADTAMYYCARHYGDSEAINDAFDIWGQGTMLTVSS
VL: EIVMTQSPATLSVSPGERATLSCRASQSVGNSLAWYQQRPGQAPRLLIYGASTRATGIPPRFSGSGSGTEFTLTISSLQTEDFAVYYCQQYINWRPLSFGGGTKVEIK
As to B1, the Trimeric HA Binding RLU was 20600 RLU in assay [1]; 19600 RLU in assay [2]; 21400 RLU in assay [3]; 30000 RLU in assay [4]; 19600 RLU in assay [5]; 21600 RLU in assay [6]. Also, in assay [8], the Trimeric HA Binding RLU stood at 38100 RLU. In addition, the Trimeric HA Binding: RLU in assay [7] amounted to 454 RLU.

B2: TCN-523 (5248_A17) (antibody, V domains shown)
VH: QVQLVQSGAEVKKPGSSVKVSCKASGGSFSNYAFSWVRQAPGQGLEWMGGTIPLLGTTNYAQKFQGRVTISADQFTSTAYMELGSLRSEDTAVYYCTRRKMTTAFDSWGQGTLVTVSS
VL: QPVLTQPPSASASLGASVTLTCTLSSAYSNYKVDWYQQRPGKGPRFVMRVGTGGIVGSKGDGIPDRFSVLGSGLNRYLTIKNIQEEDESDYHCGADHGSGSNFVSPYVFGGGTKLTVL
With B2, the figures for the Trimeric HA Binding RLU in assay [9], in assay [10] and in [11] were 29400 RLU, 24200 RLU and 21200 RLU, respectively.
